Consider 11 substances from article PMC2580030.

Values joined by “and” are separate entries in the source; they are usually repeats but may differ in a detail not shown here. Equal values may be shown once.

One experiment has as its target recombinant soluble empty (peptide free) HLA-DR1 (human). Briefly: native gel or EMSA. A general note: In EMSA bound probe runs differently from free probe, usually more slowly.
For the substance “HA 306-318 P2,3 VK→SD peptide, fluorescein-labeled”, the t1/2 stood at 4.6 min.

With “HA 306-318 P2,7 VL→SP peptide, fluorescein-labeled”, the t1/2 was 40.4 min. “HA 306-318 P2,7,10 VLA→SPG peptide, fluorescein-labeled”: the t1/2 is 9.9 min. The same measure, in the same setting: the result for “HA 306-318 P2,10 VA→SG peptide, fluorescein-labeled” reads 11.7 min; that for “HA 306-318 P3 K→D peptide, fluorescein-labeled”, 43.8 min; that for “HA 306-318 P3,7 KL→DP peptide, fluorescein-labeled”, 15.9 min.

On to “HA 306-318 P3,10 KA→DG peptide, fluorescein-labeled”, for which the t1/2 was found to be 7.92 min. In the case of “HA 306-318 P7 L→P peptide, fluorescein-labeled”, the t1/2 stood at 268 min. On the same count and under the same terms, next, “HA 306-318 P7,10 LA→PG peptide, fluorescein-labeled”: 92.9 min; “HA 306-318 P10 A→G peptide, fluorescein-labeled”: 69 min.

The target is the same in another experiment. Put plainly: fluorescence polarisation.
Take FAM labeled P7 L→C HA peptide: the loss of bound peptide during the first 24 hr was 18% and 3%.
